Experiments:
[1] = target: catalytic domain of Sst2 (residues 245–435), Sst2^cat (S. pombe) (UniProt Q9P371); assay: ITC
[2] = target: Sst2^catD354A (Asp354Ala mutant of the catalytic domain of Sst2) (S. pombe) (UniProt Q9P371); assay: ITC
Chain of Sst2^catD354A (Asp354Ala mutant of the catalytic domain of Sst2) (S. pombe) (Q9P371 245-435 D354A): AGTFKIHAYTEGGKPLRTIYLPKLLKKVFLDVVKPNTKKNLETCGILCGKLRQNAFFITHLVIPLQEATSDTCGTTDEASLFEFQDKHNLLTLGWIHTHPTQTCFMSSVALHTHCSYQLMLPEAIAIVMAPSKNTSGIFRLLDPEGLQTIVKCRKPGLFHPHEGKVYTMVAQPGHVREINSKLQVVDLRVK

Chain of catalytic domain of Sst2 (residues 245–435), Sst2^cat (S. pombe) (Q9P371 245-435): as the sequence (Q9P371 245-435 D354A) above, with A110D counted along it

Substance	dH [1]	Kd [2]	dH [2]
ubiquitin (from a pRSETA plasmid, for isothermal titration calorimetry) (from UniProt P0CG48 1-76) (natural protein)	11.9 kcal/mol	–	–
Lys63-linked diubiquitin, enzymatically synthesized from Lys63Arg and Asp77 ubiquitin mutants	–	1.1 µM	11.8 kcal/mol

From article PMC4033627
